{"source": "patent US20100254992A1", "about": "(published 2010)", "key": {"human Eotaxin 3": {"target": "T1, human Eotaxin 3 (human, UniProt Q9Y258 24-94)", "T1 sequence (looked up)": "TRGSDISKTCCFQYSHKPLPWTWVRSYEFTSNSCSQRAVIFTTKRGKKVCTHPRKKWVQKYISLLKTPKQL", "test": "Biacore, IgG capture mode"}, "human MCP-4": {"target": "T2, human MCP-4 (human, UniProt Q99616 24-98, limits assumed)", "T2 construct": "also called CCL13", "T2 sequence (Q99616 24-98 limits assumed)": "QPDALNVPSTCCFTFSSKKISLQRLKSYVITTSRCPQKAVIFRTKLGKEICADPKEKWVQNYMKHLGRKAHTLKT", "test": "Biacore, IgG capture mode"}, "human Eotaxin 2": {"target": "T3, human Eotaxin 2 (human, UniProt O00175 27-104, limits assumed)", "T3 sequence (looked up)": "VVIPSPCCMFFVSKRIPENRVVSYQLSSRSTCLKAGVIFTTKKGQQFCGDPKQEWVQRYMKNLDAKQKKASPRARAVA", "test": "Biacore, IgG capture mode"}, "human MCP-3": {"target": "T4, human MCP-3 (human, UniProt P80098 24-99)", "T4 construct": "also called CCL7", "T4 sequence (P80098 24-99 limits assumed)": "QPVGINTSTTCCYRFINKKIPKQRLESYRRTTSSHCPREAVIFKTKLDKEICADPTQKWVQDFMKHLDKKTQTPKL", "test": "Biacore, IgG capture mode"}, "human Eotaxin 1": {"target": "human Eotaxin 1 (human, UniProt P51671 24-97)", "sequence (P51671 24-97 limits assumed)": "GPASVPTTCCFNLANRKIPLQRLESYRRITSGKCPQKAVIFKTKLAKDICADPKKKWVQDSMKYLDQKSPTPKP", "test": "BioVeris solution equilibrium titration", "protocol": "Solution Equilibrium Titration (SET) Method for KD Determination and Cross-Reactivity Studies Using BioVeris. Affinity determination in solution was basically performed as described in the literature (Friguet et al., 1985). In order to improve the sensitivity and accuracy of the SET method, it was transferred from classical ELISA to ECL based BioVeris technology (Haenel et al., 2005, accepted for publication in Analytical Biochemistry). 1 mg/ml goat-anti-human (Fab)₂ or goat-anti-mouse IgG, Fc fragment specific antibodies (Jackson Immuno Research) were labelled with BV-tag™ NHS-Ester (Bioveris Europe, Witney, Oxfordshire, UK) according to manufacturer's instructions. The experiments were carried out in polypropylene microtiter plates and PBS pH 7.4 with 0.5% BSA and 0.02% Tween 20 as assay buffer. Unlabeled antigen was diluted in 4ⁿ series: For human and cyno MCP-1 a concentration range of 10 pM to 40 nM and for cross-reactivity controls (Eotaxin and MCP-2) a concentration range of 40 pM to 160 nM was chosen. Wells without antigen were used to determine Smax values. After addition of 100 pM Fab or IgG (final concentration in 75 μL final volume), the mixture was incubated for 2 hours at RT. […]\nSpecificity Testing Using BioVeris. Beside the affinity also the specificity, especially the cross-reactivity to Eotaxin and MCP-2, was analyzed in solution equilibrium titration (SET) using BioVeris. […]"}}, "data": [{"binder": "MOR03790 IgG1 (antibody, V domains shown, Human IgG1; also called MOR3790 IgG1; MOR3790k IgG) VH: QVELVQSGAEVKKPGSSVKVSCKASGGTFSSYGISWVRQAPGQGLEWMGGIIPIFGTANYAQKFQGRVTITADESTSTAYMELSSLRSEDTAVYYCARYDGIYGELDFWGQGTLVTVSS VL: not shown", "values": [{"measurement": "binding result", "setting": "human Eotaxin 3", "value": "no binding (tested: 100 nM)"}, {"measurement": "binding result", "setting": "human MCP-4", "value": "no binding (tested: 100 nM)"}, {"measurement": "binding result", "setting": "human Eotaxin 2", "value": "no binding (tested: 100 nM)"}, {"measurement": "binding result", "setting": "human MCP-3", "value": "no binding (tested: 100 nM)"}, {"measurement": "binding result", "setting": "human Eotaxin 1", "value": "no binding (tested: 40 pM to 160 nM)"}]}]}
